Test results from patent publication US20130058952A1 (UNIVERSIT T DUISBERG ESSEN, published 2013).
Positions count from the first letter of the chain named.

B1: humanized mAb h2c-V2 (antibody, V domains shown)
VH: QVTLKESGPALVKPTQTLTLTCTFSGFSLSTSGMSVGWIRQPPGKALEWLAHIWWNNDKYYKPALKSRLTISKDTSKKQVVLTMTNMDPVDTATYYCARIYYGYRPYAMDYWGQGTLVTVSS
VL: DIVMTQTPLSLPVTPGEPASISCRSSQSIVHSNGNTYLEWYLQKPGQSPQLLIYKVSNRFSGVPDRFSGSGSGTDFTLKISRVEAEDVGVYYCFQGSHVPWSFGQGTKVEIKR
notes: also called hu2c-V2
B2: 2c-F(ab′)2 (other)
VH: QVTLKESGPGILLPSQTLSLTCSFSGFSLSTSGMSVGWIRQPSGKGLEWLGHIWWNNDKYYKPALKSRLTISKDTSNKQVFLKIASVVTADTATYYCARIYYGYRPYAMDYWGQGTSVTVSS
VL: B1 VL with I2V, V3L, T14S, P15L, E17D, P18Q, Q50K, V88L, Q105G, V109L
notes: also called F(ab′)-2-fragment; F(ab)2-fragment of mAb 2c
B3: murine monoclonal antibody (mAb) 2c (antibody, V domains shown)
VH: B2 VH
VL: B1 VL with I2V, V3L, T14S, P15L, E17D, P18Q, Q50K, V88L, Q105G, V109L
notes: also called 2c IgG; 2c-IgG
B4: 2c-Fab (Fab, V domains shown)
VH: B2 VH
VL: B1 VL with I2V, V3L, T14S, P15L, E17D, P18Q, Q50K, V88L, Q105G, V109L
notes: also called Fab-fragment of mAb 2c; monovalent 2c-Fab fragment
B5: humanized mAb h2c-V4 (antibody, V domains shown)
VH: B1 VH with V81F
VL: B1 VL with I2V
notes: also called hu2c-V4
B6: humanized mAb h2c-V1 (antibody, V domains shown)
VH: B1 VH with K78N
VL: B1 VL
notes: also called hu2c-V1; mAb hu2c-V1
B7: humanized mAb h2c-V3 (antibody, V domains shown)
VH: B1 VH with V81F
VL: B1 VL
notes: also called hu2c-V3

Experiments:
[1] = biological target: T1, glycoprotein B (gB) of HSV-1 strain F on infected Vero cells (Herpes simplex virus type 1, strain F, UniProt P06436 30-903); test: cell-based or functional assay
[2] = biological target: T1, glycoprotein B (gB) of HSV-1 strain F …; test: flow cytometry on HSV-infected Vero cells (FIG. 5)
[3] = biological target: T1, glycoprotein B (gB) of HSV-1 strain F …; test: flow cytometry on HSV-1 F infected Vero cells
[4] = biological target: T1, glycoprotein B (gB) of HSV-1 strain F …; test: flow cytometry, equilibrium binding to gB on HSV-1 F infected Vero cells, KD from nonlinear regression fit
[5] = biological target: T2, glycoprotein B (gB) of HSV-2 strain G on infected Vero cells (Herpes simplex virus type 2, strain G); test: flow cytometry on HSV-2 G infected Vero cells
T2 construct: whole, on cells; also called HSV-2 G

[6] = biological target: T2, glycoprotein B (gB) of HSV-2 strain G …; test: flow cytometry, equilibrium binding curves on HSV-2 G infected Vero cells
[7] = biological target: T3, truncated HSV-1 glycoprotein B gB(1-223) (Herpes simplex virus type 1, strain 17+, UniProt P10211 31-223); test: indirect immunofluorescence on transfected COS-1 cells
T3 construct: range 31-223

[8] = biological target: T4, truncated HSV-1 glycoprotein B gB(1-130) (Herpes simplex virus type 1, strain 17+, UniProt P10211 31-130); test: as above
T4 construct: range 31-130

[9] = biological target: T5, truncated HSV-1 glycoprotein B gB(436-642) (Herpes simplex virus type 1, strain 17+, UniProt P10211 436-642); test: as above
T5 construct: range 436-642

[10] = biological target: designed 12-mer peptide PFYGYRE-G-FEDF; test: cellulose-bound peptides probed with MAb 2c, chemiluminescence
[11] = biological target: T6, duotope 179YSQFMG184-βA-300FYGYRE305; test: peptide and duotope microarray on glass slides, mAb 2c, fluorescence laser scan, signal intensity (LU)
T6 construct: also called YSQFMG-βA-FYGYRE

[12] = biological target: T7, duotope 186FED188-βA-βA-300FYGYRE305; test: as above
T7 construct: also called FED-βA-βA-FYGYRE

[13] = biological target: T1, glycoprotein B (gB) of HSV-1 strain F …; test: cell-based or functional assay; remark: listed apart in the source
[14] = biological target: T1, glycoprotein B (gB) of HSV-1 strain F …; test: flow cytometry competition on HSV-1 infected Vero cells against 100 nM mAb 2c

Row | Binder | concentration [nM] required for 50% neutralization of 100 TCID50 [1] [nM] | concentration [nM] required for 100% neutralization of 100 TCID50 [1] [nM] | EC50 (read off the curve) [3] [nM] | Kd [4] [nM] | other results
1 | B1 | 5.1 | 15.6 | ~20 | 21.4 | fold lower affinity in comparison to mAb 2c [2]: 2 fold
2 | B2 |  |  |  |  | EC50 (read off the curve) [5]: ~8 nM; Kd [6]: 8.8 nM
3 | B3 |  |  |  |  | binding result [7]: no binding; binding result [8]: no binding; binding result [9]: no binding; binding result [10]: binds; binding result [11]: binds; binding result [12]: binds
4 | B4 |  |  |  |  | EC50 (read off the curve) [5]: ~20 nM; Kd [6]: 17.7 nM
5 | B5 | 3.7 | 7.8 | ~10 | 13.7 | 
6 | B6 | 3.7 | 7.8 | ~10 | 12.8 | inhibition of HSV-1 F cell-to-cell spread in Vero cell monolayers [13]: 500 nM
7 | B7 | 3.3 | 7.8 | ~10 | 11.4 | IC50 (read off the curve) [14]: ~100 nM
